In patent US20250332277A1, “PROTEIN TYROSINE KINASE 7 ANTIBODIES AND ANTIBODY-DRUG CONJUGATES” (Eli Lilly and Company, priority 2024, published 2025):

Legend:
[1] = tested on: HeLa PTK-7-eGFP overexpressing engineered cells; experiment: Internalization / lysosomal trafficking by pHrodo fluorescence imaging; assay type: cell-based, human; conditions: 6 μg/ml (40 nM)
Method: Single clone HeLa PTK-7-eGFP overexpressing engineered cells were plated at 5,000 cells per well in a 384-well plate (PhenoPlate 384-well, black, optically clear flat-bottom, tissue-culture treated, PerkinElmer 6057308) in complete culture medium (DMEM, +10% FBS+Glutamax+Pen/Strep). Next day, the cells were treated with 6 μg/ml (40 nM) ADCs or antibodies and pHrodo labeling reagent (Zenon™ pHrodo™ iFL IgG labeling reagents, Catalog number: Z25612, Invitrogen™) with concentration of 6 μg/mL (120 nM). The ADCs or antibodies was mixed with pHrodo labeling reagent for at least 10 min prior to adding to the cells. Then, the cells were imaged using the Opera Phenix Plus high-content screening system every 90 min up to 24 hours. Data were processed and analyzed in Harmony and Microsoft Excel and graphed in GraphPad Prism.

OV90-human PTK7 cells = experiment: In vitro CDC assay with human serum complement; assay type: cell-based; conditions: PTK-7 expressing OV90 cell line, 3 hours
Method: OV90 cell line was engineered to express high level of human PTK7, having antibody binding capacity of 500,000 (using MESF quantification kit, Bangs Laboratories). OV90-human PTK7 cells were added in white clear-bottom 96-well tissue culture plates in assay medium (1:1 MCDB105/Medium199+1×GlutaMax+15% Heat Inactivated Fetal Bovine Serum) and incubated in the incubator at 37° C. with 5% CO2 overnight. Next day, 50 μL/well antibodies were added at final working concentration from 200 nM, 1:3 serially diluted in assay medium and incubated at 37° C. with 5% CO2 for one hour. Diluted human serum complement (1:3) was then added at 50 μL/well in assay medium and incubated at 37° C. with 5% CO2 for 3 hours. Plate was read using CellTiter-Glo Luminescent Cell Viability Assay. 100 μL/well CellTiter-Glo reagent were incubated in plates at room temperature for 10 min. Luminescence was read on a SpectraMax M5e. RLUs (Relative Light Units) were obtained with SoftMax Pro 5.4. Percentage of cell killing was calculated against no treatment. Data was graphed and analyzed using GraphPad Prism version 9.5.1.

OV90-PTK-7 = experiment: Cell surface binding by flow cytometry, OV90-PTK-7 (high expression); assay type: cell-based, human; conditions: Cofetuzumab max MFI set at 100%
Method: (§1) Certain PTK-7 antibodies of the present disclosure were tested for cell surface binding to three PTK-7 expressing tumor cell lines. Cell lines were selected to represent high, medium, and low receptor densities. OV90-PTK-7, overexpressing engineered ovarian tumor line representing high expression, NCI-H446 human lung cancer cells representing medium endogenous expression and OVCAR-3 human ovarian cancer cells representing low endogenous expression. […] OV90 parental cells and Namalwa-luc-GFP cells were selected as the PTK-7 negative cell lines. Antibody binding was quantified via flow cytometry and both the EC50 of the binding curves and the maximum binding MFI for each antibody were recorded.
(§2) Cells were dissociated using non-enzymatic dissociation buffer for 5 min at 37° C. Cells were counted and aliquoted to a V-bottom polypropylene 96-well plate at 10^5 cells/well. Cells were centrifuged at 1800 rpm×3 min and the supernatant discarded. […]
(§3) Cells were acquired on an Attune Cytpix Cytometer and FCS files generated using Attune™ Cytometric Software (v. 6.0.1). FCS files were then analyzed on FlowJo (v10.8.1). […] Finally, dead cells positive for staining with Zombie Green were excluded and the MFIs of live, Alexa647 positive cells were quantified. Data was graphed and analyzed on GraphPad Prism (v10.1.1).

[2] = tested on: OVCAR-3 human ovarian cancer cells; experiment: Cell surface binding by flow cytometry, OVCAR3 (low expression); assay type: cell-based; conditions: Cofetuzumab max MFI set at 100%
Method: as §1, §2, §3

[3] = tested on: NCI-H446 human lung cancer cells; experiment: Cell surface binding by flow cytometry, NCI-H446 (medium expression); assay type: cell-based; conditions: Cofetuzumab max MFI set at 100%
Method: as §1, §2, §3

OVCAR3 = OVCAR3 tumor xenograft model; assay type: in vivo, mice; conditions: OVCAR3 (Day 61); single intravenous dose 2 mg/kg
Method: Tumors were measured biweekly using a digital caliper.

[4] = tested on: Namalwa-Luc-GFP cells co-cultured with NCI-H446; experiment: Bystander effect on Namalwa-Luc-GFP co-cultured with NCI-H446 (ONE-Glo); assay type: cell-based; conditions: ratio 9:1, 7-days treatment, Namalwa-Luc-GFP killing
Method: (§4) In flat clear bottom 96-well plates, OV90-PTK-7: Namalwa-Luc-GFP clone cells were mixed and seeded at a total of 3000 cells/well/100 μL with a ratio of 2:1 in culture medium (1:1 MCDB105: Medium 199+15% Heat Inactivated Fetal Bovine Serum+1×Glutamax). Namalwa-Luc-GFP cells were negative for PTK-7 expression. Plates were incubated at 37° C. with 5% CO2 overnight. Next day, ADCs were added at final working concentration from 50 nM, 1:4 serially diluted in culture medium. Plates were covered with Breathe-Easy® sealing membrane. Plates were read after 5-days treatment using ONE-Glo™ Luciferase Assay System. 100 μL/well ONE-Glo™ Assay reagent was incubated in plates at room temperature for 10 min. Luminescence was read in the SpectraMax M5e. RLUs (Relative Light Units) were obtained with SoftMax Pro 5.4. Percentage of Namalwa-Luc-GFP killing was calculated against no treatment as 0%. Data was graphed and analyzed using Graphpad Prism version v10.1.1. IC50 was determined via log (inhibitor) vs. response (three parameters) curve fitting for ADC cytotoxicity.
In flat clear bottom 96-well plates, NCI-H446: Namalwa-Luc-GFP clone cells were mixed and seeded at a total of 5000 cells/well/100 μL with a ratio of 9:1 in culture medium (RPMI 1640+10% Heat Inactivated Fetal Bovine Serum+1× Glutamax+1 mM sodium pyruvate). […] Plates were read after 7-days treatment using ONE-Glo™ Luciferase Assay System.

[5] = tested on: Namalwa-Luc-GFP cells co-cultured with OV90-PTK-7; experiment: Bystander effect on Namalwa-Luc-GFP co-cultured with OV90-PTK-7 (ONE-Glo); assay type: cell-based; conditions: OV90-PTK-7 + Namalwa-Luc-GFP, ratio 2:1; 5-days treatment; Namalwa-Luc-GFP killing
Method: as §4

OVCAR-3 = experiment: ADC cytotoxicity (CellTiter-Glo) on low PTK-7 expressing cells; assay type: cell-based, human; conditions: 7 days treatment
Method: OVCAR3 cells were seeded in white clear-bottom 96-well tissue culture plates in culture medium (OVCAR3: ATCC modified RPMI 1640+1× GlutaMax+20% Heat Inactivated Fetal Bovine Serum+10 μg/mL bovine insulin). Cells were incubated at 37° C. with 5% CO2 overnight. Next day, ADCs were added at final working concentration from 200 nM, 1:4 serially diluted in culture medium. Plates were covered with Breathe-Easy® sealing membrane and incubated at 37° C. with 5% CO2. Plates were read after 7 days treatment using CellTiter-Glo Luminescent Cell Viability Assay. 100 μL/well CellTiter-Glo reagent were incubated in plates at room temperature for 10 min. Luminescence was read in the SpectraMax M5e. RLUs (Relative Light Units) were obtained with SoftMax Pro 5.4. Percentage of cell killing was calculated against no treatment as 0%. Data was graphed and analyzed using Graphpad Prism version v10.1.1. IC50 was determined via log (inhibitor) vs. response-variable slope (four parameters) curve fitting.

B1: Ab1: fully human PTK-7 antibody, human IgG1-AAS (L234A/L235A/D265S), kappa; HC SEQ ID NO: 2, LC SEQ ID NO: 3 (antibody)
heavy: EVQLVESGGGLVKPGGSLRLSCAASGFTFSSYIMNWVRQAPGKGLEWVSSISSSSTFIYYADSVKGRFTISRDNAKNSLYLQMNSLRAEDTAVYYCAKGFDYWGQGTLVTVSSASTKGPSVFPLAPSSKSTSGGTAALGCLVKDYFPEPVTVSWNSGALTSGVHTFPAVLQSSGLYSLSSVVTVPSSSLGTQTYICNVNHKPSNTKVDKRVEPKSCDKTHTCPPCPAPEAAGGPSVFLFPPKPKDTLMISRTPEVTCVVVSVSHEDPEVKFNWYVDGVEVHNAKTKPREEQYNSTYRVVSVLTVLHQDWLNGKEYKCKVSNKALPAPIEKTISKAKGQPREPQVYTLPPSREEMTKNQVSLTCLVKGFYPSDIAVEWESNGQPENNYKTTPPVLDSDGSFFLYSKLTVDKSRWQQGNVFSCSVMHEALHNHYTQKSLSLSPGK
light: DIQLTQSPSFLSASVGDRVTITCRASQDISSYLVWYQQKPGKAPKLLIYAASTLQSGVPSRFSGSGSGTEFTLTISSLQPEDFATYYCQQLNTYPRTFGQGTKVEIKRTVAAPSVFIFPPSDEQLKSGTASVVCLLNNFYPREAKVQWKVDNALQSGNSQESVTEQDSKDSTYSLSSTLTLSKADYEKHKVYACEVTHQGLSSPVTKSFNRGEC
[1]; Antibodies
  pHrodo intensity signal at 24 hrs: 3.00 ± 0.1

B2: Ab4: fully human PTK-7 antibody, human IgG1-AAS (L234A/L235A/D265S), kappa; HC SEQ ID NO: 32, LC SEQ ID NO: 33 (antibody)
heavy: EVQLVESGGGLVKPGGSLRLSCAASGFTFSSYSMNWVRQAPGKGLEWVSSIDSSSSFIYYADSVKGRFTISRDNAKNSLYLQMNSLRAEDTAVYYCARGTGLFDFWGQGTLVTVSSASTKGPSVFPLAPSSKSTSGGTAALGCLVKDYFPEPVTVSWNSGALTSGVHTFPAVLQSSGLYSLSSVVTVPSSSLGTQTYICNVNHKPSNTKVDKRVEPKSCDKTHTCPPCPAPEAAGGPSVFLFPPKPKDTLMISRTPEVTCVVVSVSHEDPEVKFNWYVDGVEVHNAKTKPREEQYNSTYRVVSVLTVLHQDWLNGKEYKCKVSNKALPAPIEKTISKAKGQPREPQVYTLPPSREEMTKNQVSLTCLVKGFYPSDIAVEWESNGQPENNYKTTPPVLDSDGSFFLYSKLTVDKSRWQQGNVFSCSVMHEALHNHYTQKSLSLSPGK
light: EIVLTQSPGTLSLSPGERATLSCRASQSFSSSYLAWYQQKPGQAPRLLIYGASSRATGIPDRFSGSGSGTDFTLTISRLEPEDFAVYYCQQYGRTPWTFGQGTKVEIKRTVAAPSVFIFPPSDEQLKSGTASVVCLLNNFYPREAKVQWKVDNALQSGNSQESVTEQDSKDSTYSLSSTLTLSKADYEKHKVYACEVTHQGLSSPVTKSFNRGEC
[1]; Antibodies
  pHrodo intensity signal at 24 hrs: 2.83 ± 0.18

B3: Cofetuzumab: humanized anti-PTK-7 IgG1 antibody (hu6M024) with the sequence as disclosed in WO2012112943 (antibody, chains of the INN, looked up, V domains shown)
VH: QVQLVQSGPEVKKPGASVKVSCKASGYTFTDYAVHWVRQAPGKRLEWIGVISTYNDYTYNNQDFKGRVTMTRDTSASTAYMELSRLRSEDTAVYYCARGNSYFYALDYWGQGTSVTVSS
VL: EIVLTQSPATLSLSPGERATLSCRASESVDSYGKSFMHWYQQKPGQAPRLLIYRASNLESGIPARFSGSGSGTDFTLTISSLEPEDFAVYYCQQSNEDPWTFGGGTKLEIK
OV90-human PTK7 cells
  CDC potential: did not show CDC potential
OV90-PTK-7
  % of Cofetuzumab (Average Max MFI): 100%
[1]; Antibodies
  pHrodo intensity signal at 24 hrs: 2.44 ± 0.14
[2]
  % of Cofetuzumab (Average Max MFI): 100%
[3]
  % of Cofetuzumab (Average Max MFI): 100%

B4: Cofetuzumab-Pelidotin: ADC with a cleavable valine-citrulline linker, auristatin-0101 as the payload with a drug-to-antibody ratio (DAR) of 4 (conjugate, chains of the INN, looked up)
VH: QVQLVQSGPEVKKPGASVKVSCKASGYTFTDYAVHWVRQAPGKRLEWIGVISTYNDYTYNNQDFKGRVTMTRDTSASTAYMELSRLRSEDTAVYYCARGNSYFYALDYWGQGTSVTVSS
VL: EIVLTQSPATLSLSPGERATLSCRASESVDSYGKSFMHWYQQKPGQAPRLLIYRASNLESGIPARFSGSGSGTDFTLTISSLEPEDFAVYYCQQSNEDPWTFGGGTKLEIK
modifications: pelidotin: vc linker, auristatin-0101, DAR 4
OVCAR3
  Mean tumor volume: 352.26 mm^3
[4]
  IC50: 3.18 nM
[1]; ADCs
  pHrodo intensity signal at 24 hrs: 1.71 ± 0.06
[5]
  IC50: 1.5 nM
OVCAR-3
  IC50: 2.53 nM
